This note sets out measurements from the RNAGym collection of RNA variant scans (doi:10.1073/pnas.2313332121).

The labels stand for the following.
B1: TPR t1 (parent)
chain: GACCAAUCUGCCCUCAGAGCUCGAGAACAUCUUCGGAUGCAGAGGAGGCAGGCUUCGGUGGCGCGAUAGCGCCAACGUCCUCAACCUCCAAUGCAUCCCACCACAUGAUGAUGCCUGAAGAGCCUUGGUUUUUUG

In this data set the parent is B1. In words: polymerase ribozyme fitness, log enrichment relative to wild type (log ratio); higher = more active; in vitro selection for triplet polymerase activity. The essentials:
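Each subunit of a heterodimeric triplet polymerase ribozyme was mutagenized into a library by PCR, transcribed, and subjected to one round of in vitro selection, run in triplicate. Libraries were annealed with a biotinylated primer, the partner subunit and triplets, incubated frozen at −7 °C, and extended constructs were gel-excised, captured on streptavidin beads and recovered by RT-PCR. Input and output libraries were sequenced on Illumina, keeping genotypes with ≥10 input reads and ≥1 read per output. Fitness is log base 2 of genotype enrichment divided by wild-type enrichment, from inverse-variance-weighted replicate averages.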
Turning to GACCAAUCUGCCCUCAGAGCUGGAGAACAUCUUCGGAUGCAGAGGAGGCAGGCUUCGGUGUCGCGAUAGCGCCAACGUCCUCAACCUCCAAUGCAUCCCACCACAUGAUGAUGCCUGAAGAGCAUUGGUUUUUUG [C22G G61U C124A], the “polymerase ribozyme fitness (log ratio)” value is -1.97.
Then GACCAAUCUGCCCUCAGAGCUGGAGCACAUCUUCGGAUGCAGAGGAGGCAGGCUUCGGUGGCGCGAUAGCGCCAACGUCCUCAACCUCCAAUGAUUCCCACCACAUGAUGAUGCCUGAGGAGCCUUGGUUUUUUG [C22G A26C C94A A95U A119G], with -4.33.
In the case of GACCAAUCUGCCCUCAGAGCUGGAGAACAUCUUCGGAUGCAGAGGAGGCAGGCUUCGGUGGCGCGAUAGCGCCAACGUCCUCAACCUCCAAUGCAUCCCACCACAUGAUGCUGCCUGAAGAGCCUUGGUUUUUUG [C22G A111C] it was -3.66.
In the case of GACCAAUCUGCCCUCAGAGCUGGAGAACAUCUUCGGAUGCAGAGGUGGCAGGCUUCGGUGGCGCGAUAGCGCCAAUGUCCUCAACCUCCAAUGCAUCUCACCACAUGAUGAUGCCUGAAGAGCCUUGGUUUUUUG [C22G A46U C76U C98U] it was -5.32; in that of GACCAAUCUGCCCUCAGAGCUAGAGAACAUCUUCGGAUGCAGAGGAGGCAGGCUUCGGUGGCGCGAUAGCGCCAACGUCCUCAACCACCAAUGCAUCCCACCACAUGAUGAUGCCUGAAGAGCCUUGGUUUUUUG [C22A U87A], -4.86; in that of GACCAAUCUGCCCUCAGAGCUGGAGAACAUCUUCGGAUGCAGAGGAGGCAGGCUUCGGUGGCGCGAUAGCGCUAACGUCCUCAACCUCCAAUGCAUCCCACCACAUGAUGAUGCCUGAAGAGCCUUGGUUUUUUG [C22G C73U], -2.27.
Turning to GACCAAUCUGCCCUCAGAGCUGGAGAACAUCUUCGGAUGCAGAGGAGGCAGGCUUCGGUGGCGCGAUAGCGGCAACGUCCUCAACCUCCAAUGCAUCCCACCACAUGAUGAUGCCUGAAGAGCCUUGGUUUUUUG [C22G C72G], the “polymerase ribozyme fitness (log ratio)” value was -2.12.
As for GACCAAUCUGCCCUCAGAGCUGGAGACCAUCUUCGGAUGCAGAGGAGGCAGGCUUCGGAGGCGCGAUAGCGCCAACGUCCUCAACCUCCAAUGCGUCCCACCACAUGAUGAUGCCUGAAGAGCCUUGGUUUUUUG [C22G A27C U59A A95G], the “polymerase ribozyme fitness (log ratio)” value was -3.9.
In the case of GACCAAUCUGCCCUCAGAGCUGGAGAACAUCUUCGCAUGCAUAGGAGGCAGGCUUCGGUGGCGCGAUAGCGCCAACGUCCUCAACCUCCAUUGCAUCCCACCACAUGAUGAAGCCUGAAGAGCCUUGGGUUUUUG [C22G G36C G42U A91U U112A U129G] it was -4.65.
Then GACCAAUCUGCCCUCAGAGCUGGAGAACAUCUUCGGUUGCAGAGGAGGCAGGCUUCGGUGGCGCGAUAUCGCCAACGUCCUCAACCGCCAAUGCAUCCCACCACAUGAUGAUGCCUGAAGAGCCUUGGUUUUUUG [C22G A37U G69U U87G], with -2.42.
For GACCAAUCUGCCCUCAGAGCUGGAGAACAUCUUCGGAUGCAGAGGAGGCAGGCUUCUGUGGCGCGAUAGCGCCAACGUCCUCAACCUCCAACGCAUCCCUCCAAAUGAUGAUACCUGAAGAGCCUUGGUUUUUUG [C22G G57U U92C A100U C104A G113A], the “polymerase ribozyme fitness (log ratio)” value is -7.69.
Consider GACCAAUCUGCCCUCAGAGCUGGAGAACAUCUUCGGAUGCAGAGGAGGCAAGCUUCGGUGGCGCGAUAGCGCCAACGUCCACAACCUCCAAUGCAUCCCACCACAUGAUGAUGCUUGAAGAGCCUUGGUAUUUUG [C22G G51A U81A C115U U130A], for which the “polymerase ribozyme fitness (log ratio)” value was -5.32.
Then GACCAAUCUGCCCUCAGAGCUGGAGAACAUCUUCGGAUGCAGAGUAGGCAGGCUUGGGUGGCGCGAUAGCGCCAACGUCCUCAACCUCCAAUGCAUCCCACCACAUGAUGUUGCCUGAAGAGCCUUGGUUUUUUG [C22G G45U C56G A111U], with -3.8; and GACCAAUCUGCCCUCAGAGCUGGAGAACAUCUUCGGAUGGAGAGAACGCAGGCUUCGGUGGCGCGAUAGCGGCAACGUCCUCAACCUCCAAUGCAUCCCACCACAUGAUGAGGCCUGAAGAGCCUUGGUUUAUUG [C22G C40G G45A G47C C72G U112G U132A], with -4.49.
GACCAAUCUGCCCUCAGAGCUGGAGAACAUCUUCGGAUGCCGACGAGGCAGGCUUCGGUGGCGCGAUAGCGCCAACGUGCUCAACCUCCCAUGCAUCCCACCACAUGAUGAUGCCUGAAGAGCCUUGGUUUUUUG [C22G A41C G44C C79G A90C]: the “polymerase ribozyme fitness (log ratio)” value was -6.07.
Take GACCAAUCUGCCCUCAGAGCUGGAGAACAUCUUCGGAUGCAUAGGAGGCAGGCUUCGGUGGCGCGAUAGCGCCAACGUCCUCAACCUCCAAUGCAUCCCACCACAUGAUGAUGCCUGAAGAGCCUUGGUUUUUUG [C22G G42U]: the “polymerase ribozyme fitness (log ratio)” value is -4.63.
Then GACCAAUCUGCCCUCAGAGCUGGAGAACAUCUUCGGAUGCAGAGGAGGCAGGCUUCGGUGGCGCGAUAGCGCCAACGUCCUCAACCUCCAAUGCAUCCCACCACAUGAUGAUGCCUAAGGAGCCUUGGUUUUUUG [C22G G117A A119G], with -1.55; and GACCAAUCUGCCCUCAGAGCUGGAGAACAUCUUCGGAUGCAGAGGAGACAGGCUUCGGUGGCGCGAUACCGCCAACGACCUCAACCCCCAAUGCAUCCCACCACAUGAUGAUGCCUGAAGAGCCUUGGUUUUUUG [C22G G48A G69C U78A U87C], with -5.69.
Then GACCAAUCUGCCCUCAGAGCUGGAGAACAUCUUCGGAUGCAGAGGAGGCAGGCUUCGGUGGCACGAUAGCGCCAACGUCCUCAACCUCCAAUGCAUCCCACCACAUGAUGAUGCCUGAAGAGCCUUGGUUUUUUG [C22G G63A], with -4.12; and GACCAAUCUGCCCUCAGAGCUAGAGAACAUCUUCGGAUGCAGAGGAGGCAGGCUUCGGUGGCGCGAUAGCGCCAACGUCCUCAACCUCCAAUGCAUCCCACCACAUGAUGAUGCCUGAAGAGCCUUGGGUUUUUG [C22A U129G], with -6.22.
In the case of GACCAAUCUGCCCUCAGAGCUGGAGAACAUCUUCGGAUGCAGAGGAGGCAGGCUUCGGUGGCGCGAUAACGCCAACGUCCUCAACCUCCUAUGCAUCCCACCACAAGAUGUUGCCUGAAGAGCCUUGGUUUUUUG [C22G G69A A90U U106A A111U] it was -4.92.
